Drawing on publication PMC1839166, “Type III Effector Activation via Nucleotide Binding, Phosphorylation, and Host Target Interaction” (PLoS Pathogens, 2007), this text covers Kd for one molecule.

The target of assay [1] is T1, avirulence protein B (AvrB), wild type (Pseudomonas syringae pv. glycinea, UniProt P13835 1-321).
T1 construct: AvrB (avirulence protein B), type III effector of Pseudomonas syringae pv. glycinea; residues 26-53 and 56-321 are modelled in the AvrB/RIN4 structure; also called wild-type AvrB; source: E. coli BL21 Rosetta (pProEX-HTa), purified (nickel column, TEV digestion, Source Q, Sephacryl S200 if needed); not shown: His tag, N-terminal, cleaved
T1 sequence (P13835 whole entry, the tested form may be a part): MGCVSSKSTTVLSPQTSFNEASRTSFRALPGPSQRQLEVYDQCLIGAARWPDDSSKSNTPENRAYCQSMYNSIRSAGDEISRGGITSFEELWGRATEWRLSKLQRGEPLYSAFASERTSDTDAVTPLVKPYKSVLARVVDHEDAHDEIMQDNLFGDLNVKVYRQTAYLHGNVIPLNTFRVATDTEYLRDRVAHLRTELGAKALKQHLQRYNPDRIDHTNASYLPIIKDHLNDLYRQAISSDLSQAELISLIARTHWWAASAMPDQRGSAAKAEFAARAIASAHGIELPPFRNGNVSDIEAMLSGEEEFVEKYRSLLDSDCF
The assay is described as follows: ITC; VP-ITC microcalorimeter; RIN4_(142–176) peptide (50 to 450 μM) titrated in 6-μl injections into 5 to 25 μM wild-type or variant AvrB, stirring at 255 rpm; wild-type AvrB 6 μM with full-length RIN4 120 μM; nonbinding confirmed at as much as 25 μM and 450 μM. The settings on record: both partners purified. In general terms: ITC needs no label: the signal is the heat of the interaction.

Assay [2] deals with T2, AvrB^QRY/AAA (Pseudomonas syringae pv. glycinea, UniProt P13835 1-321, QRY/AAA (Q208, R209, and Y210 to alanine)).
T2 construct: AvrB (avirulence protein B), Pseudomonas syringae pv. glycinea; also called triple mutation of Q208, R209, and Y210 to alanine; source: E. coli BL21 Rosetta, purified (glutathione column, TEV digestion, Source Q); not shown: GST, N-terminal, cleaved
T2 sequence: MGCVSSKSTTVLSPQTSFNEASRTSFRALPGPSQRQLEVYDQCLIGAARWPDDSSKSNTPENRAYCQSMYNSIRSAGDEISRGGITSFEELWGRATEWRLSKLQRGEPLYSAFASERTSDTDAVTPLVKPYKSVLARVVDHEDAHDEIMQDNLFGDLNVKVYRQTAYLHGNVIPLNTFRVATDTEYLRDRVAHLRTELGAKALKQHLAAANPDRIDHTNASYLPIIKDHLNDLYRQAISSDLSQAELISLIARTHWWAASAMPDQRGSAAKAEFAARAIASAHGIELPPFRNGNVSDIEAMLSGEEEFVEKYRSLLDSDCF
The assay is described as above. To be noted: both partners purified.

B1: RIN4_(142–176) (peptide, UniProt Q8GYN5 142-176, looked up)
peptide: PEKVTVVPKFGDWDENNPSSADGYTHIFNKVREER
notes: the last four residues are printed as REER; residues 150-172 are modelled in the structure; also called RIN4 peptide
As for B1, the Kd in assay [1] was 3 µM; in assay [2] it was 9 µM.

As usually defined, the Kd is the equilibrium constant for the complex coming apart. A lower Kd goes with tighter binding.
